# Measured values from patent publication US20220380463A1 (Adimab, published 2022).
# Where a chain is given by its changes, count along the chain named.
# T1: Cynomolgus CD3εδ Fc heterodimer (Cy CD3ε Fc / CD3δ Fc-HIS) (cynomolgus, UniProt Q95LI8 22-100)
# T1 chain 1: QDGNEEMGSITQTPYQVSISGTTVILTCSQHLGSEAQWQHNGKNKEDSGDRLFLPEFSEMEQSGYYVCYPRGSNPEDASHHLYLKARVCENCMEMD
# T1 chain 2: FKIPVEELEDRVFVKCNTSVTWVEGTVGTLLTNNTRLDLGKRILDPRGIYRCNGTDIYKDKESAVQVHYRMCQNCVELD
# B1: SAD10319_P06_E09 (ADI-57427) (antibody, V domains shown)
# VH: QVQLVQSGAEVKKPGASVKVSCKASGYTFTAYDMHWVRQAPGQRLEWMGWINPDTGATVYSQKFQGRVTITRDTSASTAYMELSSLRSEDTAVYYCARDAYGRYFYDVWGQGTLVTVSS
# VL: DIVMTQSPDSLAVSLGERATINCKSSQSLLNARTGKNYLAWYQQKPGQPPKLLIYWASTRESGVPDRFSGSGSGTDFTLTISSLQAEDVAVYYCKQSYSRRTFGGGTKVEIK
# notes: IgG; also called Ab156
# B2: SAD10319_P05_C01 (ADI-57403) (antibody, V domains shown)
# VH: B1 VH with A31D, Y32D, D33A, N52D, P53A, D54G, A57N, V59Y, R98H, R103H
# VL: B1 VL
# notes: IgG; also called Ab130
# B3: SAD10320_P04_D11 (ADI-57387) (antibody, V domains shown)
# VH: QVQLVQSGAEVKKPGASVKVSCKASGFNIKDYYMHWVRQAPGQRLQWMGWIDLENANTIYDAKFQGRVTITRDTSASTAYMELSSLRSEDTAVYYCARDAYGHVFYDVWGQGTLVTVSS
# VL: B1 VL with S99H, R100H
# notes: IgG; also called Ab110
# B4: SAD10319_P05_G02 (ADI-57414) (antibody, V domains shown)
# VH: B1 VH with A31T, D33A, N52D, D54V, A57N, V59K, A100H, V108H
# VL: B1 VL
# notes: IgG; also called Ab142
# B5: SAD10319_P05_F01 (ADI-57412) (antibody, V domains shown)
# VH: QVQLVQSGAEVKKPGASVKVSCKASGYTFTDDAMHWVRQAPGQSLEWMGWIDAGTGNTYYSQKFQGRVTITRDTSASTAYMELSSLRSEDTAVYYCAHDAYGHYFYDVWGQGTLVTVSS
# VL: B1 VL
# notes: IgG; also called Ab140
# B6: SAD10319_P06_F07 (ADI-57429) (antibody, V domains shown)
# VH: B1 VH with T30E, A31S, R44P, N52D, P53A, D54G, V59T, G102H, R103H
# VL: B1 VL
# notes: IgG; also called Ab159
# B7: SAD10319_P06_C10 (ADI-57423) (antibody, V domains shown)
# VH: B1 VH with A31E, D33V, Q43P, W50D, N52D, P53A, D54G, V59K, G102H, R103H
# VL: B1 VL
# notes: IgG; also called Ab152
# B8: SAD10319_P05_G03 (ADI-57415) (antibody, V domains shown)
# VH: B1 VH with T30H, A31S, D33N, Q43H, V59D
# VL: B1 VL
# notes: IgG; also called Ab143
# B9: SAD10319_P06_A11 (ADI-57420) (antibody, V domains shown)
# VH: B1 VH with T30D, A31S, Y32I, D33A, D54A, A57N, V59D, R103H, V108H
# VL: B1 VL
# notes: IgG; also called Ab149
# B10: SAD10320_P04_F12 (ADI-57394) (antibody, V domains shown)
# VH: B3 VH with Q46E, W47R, V104E
# VL: B1 VL
# notes: IgG; also called Ab120
# B11: SAD10319_P05_A03 (ADI-57397) (antibody, V domains shown)
# VH: B5 VH with T30N, D32Y, S44R, H98R, Y101H
# VL: B1 VL
# notes: IgG; also called Ab123
# B12: SAD10319_P05_D04 (ADI-57409) (antibody, V domains shown)
# VH: B1 VH with A31S, Y32D, D33Y, P53A, D54G, V59D, R98H, F105H
# VL: B1 VL
# notes: IgG; also called Ab137
# B13: SAD10319_P05_A02 (ADI-57396) (antibody, V domains shown)
# VH: B1 VH with T30A, A31S, N52D, P53A, D54G, R103H, V108H
# VL: B1 VL
# notes: IgG; also called Ab122
# B14: SAD10319_P05_B05 (ADI-57402) (antibody, V domains shown)
# VH: B5 VH with T30V, D32Y, S44R, Y59D, H98R, Y101H
# VL: B1 VL
# notes: IgG; also called Ab129
# B15: SAD10319_P06_B11 (ADI-57422) (antibody, V domains shown)
# VH: B1 VH with T30H, A31S, N52D, P53A, D54G, V59T, R103H
# VL: B1 VL
# notes: IgG; also called Ab151
# B16: SAD10319_P06_E08 (ADI-57426) (antibody, V domains shown)
# VH: B1 VH with T30I, A31K, D33V, W50D, N52D, V59E, A100D, G102H, R103H
# VL: B1 VL
# notes: IgG; also called Ab155
# B17: SAD10320_P04_D12 (ADI-57392) (antibody, V domains shown)
# VH: B3 VH with Q46E, V104D
# VL: B1 VL with R100H
# notes: IgG; also called Ab118
# B18: SAD10319_P05_H06 (ADI-57417) (antibody, V domains shown)
# VH: B1 VH with A31E, Q43P, R44T, N52D, P53A, D54G, V108H
# VL: B1 VL
# notes: IgG; also called Ab145
# B19: SAD10319_P05_E04 (ADI-57411) (antibody, V domains shown)
# VH: B1 VH with A31G, D33E, D54S, A57N, A100H, R103H
# VL: B1 VL
# notes: IgG; also called Ab139
# B20: SAD10319_P06_F10 (ADI-57430) (antibody, V domains shown)
# VH: B1 VH with T30V, A31S, Q43P, R44S, N52D, D54N, A100H, R103H
# VL: B1 VL
# notes: IgG; also called Ab160
# B21: SAD10319_P06_D12 (ADI-57425) (antibody, V domains shown)
# VH: QVQLVQSGAEVKKPGASVKVSCKASGYTFNRYVMHWVRQAPGQRLEWMGGIDAGTGATKYSQKFQGRVTITRDTSASTAYMELSSLRSEDTAVYYCARDAHRHYFYDVWGQGTLVTVSS
# VL: B1 VL
# B22: SAD10319_P05_B04 (ADI-57401) (antibody, V domains shown)
# VH: B1 VH with A31S, Y32A, D33V, W50D, P53A, D54G, V59D
# VL: B1 VL
# notes: IgG; also called Ab128
# Target: T1, Cynomolgus CD3εδ Fc heterodimer (Cy …)
# Assay: BLI (Octet), IgG on AHC sensor, pH 6.0
row,koff [s⁻¹],Binder
1,0.0122,B1
2,0.013,B2
3,0.00338,B3
4,0.0156,B4
5,0.0214,B5
6,0.0251,B6
7,0.00318,B7
8,0.0167,B8
9,0.00279,B9
10,0.00259,B10
11,0.0127,B11
12,0.022,B12
13,0.0246,B13
14,0.00654,B14
15,0.0101,B15
16,0.0105,B16
17,0.00259,B17
18,0.0104,B18
19,0.00373,B19
20,0.00663,B20
21,0.0192,B21
22,0.00258,B22
